Experimental data taken from US20250043302A1, “MUTATED HYDROXYPHENYLPYRUVATE DIOXYGENASE POLYPEPTIDE, AND CODING GENE AND USE THEREOF” (BEIJING DABEINONG BIOTECHNOLOGY CO., LTD., priority 2021, published 2025).

How the values were obtained:
Format in all cases: in vivo
[1] = test system: Arabidopsis thaliana T1 plants; assay: Isoxaflutole tolerance of transgenic Arabidopsis thaliana T1 plants (spray, bleached leaf area grade, damage score); parameters: Scores (pesticide damage): scale not given here; details: spray, Arabidopsis thaliana T1 plants; for Classification and statistics of the grade of pesticide damage: Grade 0 (number of plants) / Classification and statistics of the grade of pesticide damage: Grade 1 (number of plants) / Classification and statistics of the grade of pesticide damage: Grade 2 (number of plants) / Classification and statistics of the grade of pesticide damage: Grade 3 (number of plants): 16 plants
Summary of the method: (§1)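 Damage graded 0–3 from the proportion of bleached leaf area 7 days after spraying. Plants were glufosinate-selected T1 lines, 18 days after sowing, plus vector and wild-type controls. Rates: mesotrione 52.5–420, isoxaflutole 35–280, topramezone 25–200 g ai/ha, with water (0×).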

[2] = test system: Arabidopsis thaliana T1 plants; assay: Topramezone tolerance of transgenic Arabidopsis thaliana T1 plants (spray, bleached leaf area grade, damage score); details: 7 DAT, Table 4; for Classification and statistics of the grade of pesticide damage: Grade 0 / Classification and statistics of the grade of pesticide damage: Grade 1 / Classification and statistics of the grade of pesticide damage: Grade 2 / Classification and statistics of the grade of pesticide damage: Grade 3: number of plants; for Scores: pesticide damage score 0-100
Summary of the method: as §1

[3] = test system: Arabidopsis thaliana T1 plants; assay: Mesotrione tolerance of transgenic Arabidopsis thaliana T1 plants (spray, bleached leaf area grade, damage score); parameters: Scores: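 damage score 0-100 computed as Σ(N×S)/(T×M)×100 over grades 0-3 with higher meaning more damage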; details: Arabidopsis thaliana T1 plants; for Grade 0 (classification and statistics of the grade of pesticide damage; number of plants) / Grade 1 (classification and statistics of the grade of pesticide damage; number of plants) / Grade 2 (classification and statistics of the grade of pesticide damage; number of plants) / Grade 3 (classification and statistics of the grade of pesticide damage; number of plants): 16 plants
Summary of the method: as §1

[4] = isoxaflutole 35 g ai/ha (0.5x field concentration)
[5] = isoxaflutole 70 g ai/ha (1x field concentration)

B1: OsHPPD-02: nucleotide sequence encoding wild-type Oryza sativa HPPD; vector DBN11754 (nucleic acid)
DNA: ATGCCACCCACGCCAACACCAACGGCCACCACTGGTGCCGTCTCGGCCGCGGCAGCGGCCGGTGAGAATGCTGGTTTCAGGCTAGTCGGCCACCGCCGCTTCGTGAGGGCAAATCCAAGATCTGATCGGTTCCAAGCACTTGCTTTCCACCATGTTGAGCTGTGGTGCGCTGACGCCGCTTCAGCTGCCGGGAGGTTTGCTTTTGCTTTAGGGGCGCCGCTCGCCGCAAGGAGTGATCTTTCCACCGGAAATTCTGCTCATGCTTCTCTTCTACTTAGATCAGCAAGTGTTGCATTTCTGTTCACTGCACCTTATGGCGGAGACCATGGTGTCGGGGCCGATGCTGCAACAACAGCTAGCATACCATCATTTTCTCCCGGCGCCGCAAGAAGATTTGCAGCCGATCATGGCCTGGCAGTTCATGCTGTGGCATTGAGGGTCGCCGACGCGGCTGATGCGTTCCGCGCCAGCGTGGCTGCTGGAGCTAGGCCGGCGTTCCAGCCTGCTGACCTTGGGGGTGGATTTGGATTGGCGGAGGTTGAATTATATGGTGATGTTGTGCTCCGTTTTGTTTCCCATCCAGATGGTGCTGATGCTCCATTTCTACCTGGATTTGAAGGGGTGTCAAACCCCGGCGCGGTGGATTATGGACTGCGTCGATTTGATCACGTGGTAGGTAATGTTCCTGAGTTGGCTCCCGTGGCGGCCTACATTTCAGGCTTTACTGGCTTCCATGAATTTGCCGAGTTCACCGCGGAAGATGTGGGAACTGCTGAAAGTGGATTGAACTCTGTTGTCCTGGCGAACAATGCAGAGACTGTATTGCTCCCCTTGAATGAGCCTGTGCACGGCACCAAACGGCGATCTCAAATTCAGACATACCTCGACCACCACGGGGGCCCTGGTGTTCAGCATATTGCTCTAGCCAGCGACGACGTACTGGGAACACTGAGGGAGATGAGAGCCCGTTCCGCCATGGGTGGCTTTGAGTTTCTGGCCCCTCCGCCGCCAAACTACTACGACGGCGTCAGACGGCGGGCGGGTGACGTCTTGAGTGAGGAGCAGATCAATGAATGTCAAGAACTTGGGGTTCTTGTTGATAGAGATGATCAAGGAGTGCTCCTCCAAATATTCACAAAACCTGTTGGCGACCGCCCGACCTTCTTCCTTGAAATGATCCAAAGGATCGGCTGCATGGAGAAGGATGAATCGGGCCAGGAGTACCAGAAGGGTGGGTGTGGTGGCTTTGGGAAGGGCAACTTCAGCGAGCTGTTCAAGTCAATTGAAGAATATGAAAAATCATTGGAGGCAAAGCAAGCTCCGACGGTGCAGGGAAGCTGA
modifications: OsHPPD-02 Nucleotide Sequence
notes: vector DBN11754
In the case of B1, the Resistance evaluation [1, 4] is reported as “Non-resistant”, the “Scores (pesticide damage)” value [1, 4] is reported as 100 and the “Classification and statistics of the grade of pesticide damage: Grade 0 (number of plants)” value [1, 4] is reported as 0. For the same molecule, the “Classification and statistics of the grade of pesticide damage: Grade 1 (number of plants)” value [1, 4] was 0, the “Classification and statistics of the grade of pesticide damage: Grade 2 (number of plants)” value [1, 4] was 0 and the “Classification and statistics of the grade of pesticide damage: Grade 3 (number of plants)” value [1, 4] was 16. The Resistance evaluation [1, 5] was “Non-resistant”, the “Scores (pesticide damage)” value [1, 5] was 100 and the “Classification and statistics of the grade of pesticide damage: Grade 0 (number of plants)” value [1, 5] was 0. For the same molecule, the “Classification and statistics of the grade of pesticide damage: Grade 1 (number of plants)” value [1, 5] was 0, the “Classification and statistics of the grade of pesticide damage: Grade 2 (number of plants)” value [1, 5] was 0 and the “Classification and statistics of the grade of pesticide damage: Grade 3 (number of plants)” value [1, 5] was 16. For the same molecule, the “Classification and statistics of the grade of pesticide damage: Grade 0” value ([2]; topramezone 25 g ai/ha (1×)) was 0, the “Classification and statistics of the grade of pesticide damage: Grade 1” value ([2]; topramezone 25 g ai/ha (1×)) was 0 and the “Classification and statistics of the grade of pesticide damage: Grade 2” value ([2]; topramezone 25 g ai/ha (1×)) was 0. For the same molecule, the “Classification and statistics of the grade of pesticide damage: Grade 3” value ([2]; topramezone 25 g ai/ha (1×)) was 16, the “Classification and statistics of the grade of pesticide damage: Grade 0” value ([2]; topramezone 100 g ai/ha (4×)) was 0 and the “Classification and statistics of the grade of pesticide damage: Grade 1” value ([2]; topramezone 100 g ai/ha (4×)) was 0. The “Classification and statistics of the grade of pesticide damage: Grade 2” value ([2]; topramezone 100 g ai/ha (4×)) was 0, the “Classification and statistics of the grade of pesticide damage: Grade 3” value ([2]; topramezone 100 g ai/ha (4×)) was 16 and the Scores ([2]; topramezone 25 g ai/ha (1×)) was 100. For the same molecule, the Scores ([2]; topramezone 100 g ai/ha (4×)) was 100, the Resistance evaluation ([2]; topramezone 25 g ai/ha (1×)) was “non-resistant (non-resistant plants (scores 68-100))” and the Resistance evaluation ([2]; topramezone 100 g ai/ha (4×)) was “non-resistant (non-resistant plants (scores 68-100))”. For the same molecule, the Resistance evaluation ([3]; mesotrione 52.5 g ai/ha) was “Non-resistant”, the Scores ([3]; mesotrione 52.5 g ai/ha) was 100 and the “Grade 0 (classification and statistics of the grade of pesticide damage; number of plants)” value ([3]; mesotrione 52.5 g ai/ha) was 0. The “Grade 1 (classification and statistics of the grade of pesticide damage; number of plants)” value ([3]; mesotrione 52.5 g ai/ha) was 0, the “Grade 2 (classification and statistics of the grade of pesticide damage; number of plants)” value ([3]; mesotrione 52.5 g ai/ha) was 0 and the “Grade 3 (classification and statistics of the grade of pesticide damage; number of plants)” value ([3]; mesotrione 52.5 g ai/ha) was 16. The Resistance evaluation ([3]; mesotrione 105 g ai/ha) was “Non-resistant”, the Scores ([3]; mesotrione 105 g ai/ha) was 100 and the “Grade 0 (classification and statistics of the grade of pesticide damage; number of plants)” value ([3]; mesotrione 105 g ai/ha) was 0. For the same molecule, the “Grade 1 (classification and statistics of the grade of pesticide damage; number of plants)” value ([3]; mesotrione 105 g ai/ha) was 0, the “Grade 2 (classification and statistics of the grade of pesticide damage; number of plants)” value ([3]; mesotrione 105 g ai/ha) was 0 and the “Grade 3 (classification and statistics of the grade of pesticide damage; number of plants)” value ([3]; mesotrione 105 g ai/ha) was 16.
